Laboratory results: US20220144956A1 (published 2022)

Each binder was assayed against human TGFßRII (antigen of the Octet experiments) (human, UniProt P37173 23-166) (assay: BLI (Octet)).
human TGFßRII (antigen of the Octet experiments), sequence (P37173 23-166): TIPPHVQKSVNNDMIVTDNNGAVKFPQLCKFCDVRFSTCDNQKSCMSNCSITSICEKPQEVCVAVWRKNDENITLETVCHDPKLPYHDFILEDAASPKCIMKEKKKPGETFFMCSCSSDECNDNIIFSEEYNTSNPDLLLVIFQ

Binder | Kd [nM]
H1.24 L1 XENP34480 (antibody, V domains shown) VH: QLQVQESGPGLVKPSETLSLTCTVSGGSISNSHFSWGWIRQPPGKGLEWIGSFYYGEKTYYNPSLKSRATISIDTSKSQFSLKLSSVTAADTAVYYCPRGPTMIRGVIDSWGQGTLVTVSS VL: EIVLTQSPATLSLSPGERATLSCRASQSVRSYLAWYQQKPGQAPRLLIYDASNRATGIPARFSGSGSGTDFTLTISSLEPEDFAVYYCQQRSNWPPTFGQGTKVEIK | 0.199
H1.38 L1 XENP34494 (antibody, V domains shown) VH: QLQVQESGPGLVKPSETLSLTCTVSGGSISNSYFSWGWIRQAPGKGLEWIGSFYYGEKTYYNPSLKSRATISIDTSKSQFSLKLSSVTAADTAVYYCPRGPTMIRGVIDSWGQGTLVTVSS VL: EIVLTQSPATLSLSPGERATLSCRASQSVRSYLAWYQQKPGQAPRLLIYDASNRATGIPARFSGSGSGTDFTLTISSLEPEDFAVYYCQQRSNWPPTFGQGTKVEIK | 0.325
H1.19 L1 XENP34475 (antibody, V domains shown) VH: QLQVQESGPGLVKPSETLSLTCTVSGGSISNGYFSWGWIRQPPGKGLEWIGSFYYGEKTYYNPSLKSRATISIDTSKSQFSLKLSSVTAADTAVYYCPRGPTMIRGVIDSWGQGTLVTVSS VL: EIVLTQSPATLSLSPGERATLSCRASQSVRSYLAWYQQKPGQAPRLLIYDASNRATGIPARFSGSGSGTDFTLTISSLEPEDFAVYYCQQRSNWPPTFGQGTKVEIK | 0.836
H1.14 L1 XENP34470 (antibody, V domains shown) VH: QLQVQESGPGLVKPSETLSLTCTVSGGSISSSYFSWGWIRQPPGKGLEWIGSFYYGEKTYYNPSLKSRATISIDTSKSQFSLKLSSVTAADTAVYYCPRGPTMIRGVIDSWGQGTLVTVSS VL: EIVLTQSPATLSLSPGERATLSCRASQSVRSYLAWYQQKPGQAPRLLIYDASNRATGIPARFSGSGSGTDFTLTISSLEPEDFAVYYCQQRSNWPPTFGQGTKVEIK | 0.181
H1.37 L1 XENP34493 (antibody, V domains shown) VH: QLQVQESGPGLVKPSETLSLTCTVSGGSISNSYFSWGWVRQPPGKGLEWIGSFYYGEKTYYNPSLKSRATISIDTSKSQFSLKLSSVTAADTAVYYCPRGPTMIRGVIDSWGQGTLVTVSS VL: EIVLTQSPATLSLSPGERATLSCRASQSVRSYLAWYQQKPGQAPRLLIYDASNRATGIPARFSGSGSGTDFTLTISSLEPEDFAVYYCQQRSNWPPTFGQGTKVEIK | 0.391
H1.21 L1 XENP34477 (antibody, V domains shown) VH: QLQVQESGPGLVKPSETLSLTCTVSGGSISNSAFSWGWIRQPPGKGLEWIGSFYYGEKTYYNPSLKSRATISIDTSKSQFSLKLSSVTAADTAVYYCPRGPTMIRGVIDSWGQGTLVTVSS VL: EIVLTQSPATLSLSPGERATLSCRASQSVRSYLAWYQQKPGQAPRLLIYDASNRATGIPARFSGSGSGTDFTLTISSLEPEDFAVYYCQQRSNWPPTFGQGTKVEIK | 0.455
H1.1 L1 XENP28299 (antibody, V domains shown) VH: QLQVQESGPGLVKPSETLSLTCTVSGGSISNSYFSWGWIRQPPGKGLEWIGSFYYGEKTYYNPSLKSRATISIDTSKSQFSLKLSSVTAADTAVYYCPRGPTVIRGVIDSWGQGTLVTVSS VL: EIVLTQSPATLSLSPGERATLSCRASQSVRSYLAWYQQKPGQAPRLLIYDASNRATGIPARFSGSGSGTDFTLTISSLEPEDFAVYYCQQRSNWPPTFGQGTKVEIK | 0.325
H1.10 L1 XENP34466 (antibody, V domains shown) VH: QLQVQESGPGLVKPSETLSLTCTVSGGSVSNSYFSWGWIRQPPGKGLEWIGSFYYGEKTYYNPSLKSRATISIDTSKSQFSLKLSSVTAADTAVYYCPRGPTMIRGVIDSWGQGTLVTVSS VL: EIVLTQSPATLSLSPGERATLSCRASQSVRSYLAWYQQKPGQAPRLLIYDASNRATGIPARFSGSGSGTDFTLTISSLEPEDFAVYYCQQRSNWPPTFGQGTKVEIK | 0.182
H1.12 L1 XENP34468 (antibody, V domains shown) VH: QLQVQESGPGLVKPSETLSLTCTVSGGSISESYFSWGWIRQPPGKGLEWIGSFYYGEKTYYNPSLKSRATISIDTSKSQFSLKLSSVTAADTAVYYCPRGPTMIRGVIDSWGQGTLVTVSS VL: EIVLTQSPATLSLSPGERATLSCRASQSVRSYLAWYQQKPGQAPRLLIYDASNRATGIPARFSGSGSGTDFTLTISSLEPEDFAVYYCQQRSNWPPTFGQGTKVEIK | 0.374
H1.4 L1 XENP34460 (antibody, V domains shown) VH: QLQLQESGPGLVKPSETLSLTCTVSGGSISNSYFSWGWIRQPPGKGLEWIGSFYYGEKTYYNPSLKSRATISIDTSKSQFSLKLSSVTAADTAVYYCPRGPTMIRGVIDSWGQGTLVTVSS VL: EIVLTQSPATLSLSPGERATLSCRASQSVRSYLAWYQQKPGQAPRLLIYDASNRATGIPARFSGSGSGTDFTLTISSLEPEDFAVYYCQQRSNWPPTFGQGTKVEIK | 0.128
H1.27 L1 XENP34483 (antibody, V domains shown) VH: QLQVQESGPGLVKPSETLSLTCTVSGGSISNSYYSWGWIRQPPGKGLEWIGSFYYGEKTYYNPSLKSRATISIDTSKSQFSLKLSSVTAADTAVYYCPRGPTMIRGVIDSWGQGTLVTVSS VL: EIVLTQSPATLSLSPGERATLSCRASQSVRSYLAWYQQKPGQAPRLLIYDASNRATGIPARFSGSGSGTDFTLTISSLEPEDFAVYYCQQRSNWPPTFGQGTKVEIK | 0.809
H1.30 L1 XENP34486 (antibody, V domains shown) VH: QLQVQESGPGLVKPSETLSLTCTVSGGSISNSYFYWGWIRQPPGKGLEWIGSFYYGEKTYYNPSLKSRATISIDTSKSQFSLKLSSVTAADTAVYYCPRGPTMIRGVIDSWGQGTLVTVSS VL: EIVLTQSPATLSLSPGERATLSCRASQSVRSYLAWYQQKPGQAPRLLIYDASNRATGIPARFSGSGSGTDFTLTISSLEPEDFAVYYCQQRSNWPPTFGQGTKVEIK | 5.9
H1.36 L1 XENP34492 (antibody, V domains shown) VH: QLQVQESGPGLVKPSETLSLTCTVSGGSISNSYFSWSWIRQPPGKGLEWIGSFYYGEKTYYNPSLKSRATISIDTSKSQFSLKLSSVTAADTAVYYCPRGPTMIRGVIDSWGQGTLVTVSS VL: EIVLTQSPATLSLSPGERATLSCRASQSVRSYLAWYQQKPGQAPRLLIYDASNRATGIPARFSGSGSGTDFTLTISSLEPEDFAVYYCQQRSNWPPTFGQGTKVEIK | 1.76
H1.13 L1 XENP34469 (antibody, V domains shown) VH: QLQVQESGPGLVKPSETLSLTCTVSGGSISGSYFSWGWIRQPPGKGLEWIGSFYYGEKTYYNPSLKSRATISIDTSKSQFSLKLSSVTAADTAVYYCPRGPTMIRGVIDSWGQGTLVTVSS VL: EIVLTQSPATLSLSPGERATLSCRASQSVRSYLAWYQQKPGQAPRLLIYDASNRATGIPARFSGSGSGTDFTLTISSLEPEDFAVYYCQQRSNWPPTFGQGTKVEIK | 1
H1.2 L1 XENP34458 (antibody, V domains shown) VH: QVQVQESGPGLVKPSETLSLTCTVSGGSISNSYFSWGWIRQPPGKGLEWIGSFYYGEKTYYNPSLKSRATISIDTSKSQFSLKLSSVTAADTAVYYCPRGPTMIRGVIDSWGQGTLVTVSS VL: EIVLTQSPATLSLSPGERATLSCRASQSVRSYLAWYQQKPGQAPRLLIYDASNRATGIPARFSGSGSGTDFTLTISSLEPEDFAVYYCQQRSNWPPTFGQGTKVEIK | 0.001

The remaining binders from weak to strong by Kd, led by results:

Kd [nM] | Binder
3.6 | H1.28 L1 XENP34484 (antibody, V domains shown) VH: QLQVQESGPGLVKPSETLSLTCTVSGGSISNSYFAWGWIRQPPGKGLEWIGSFYYGEKTYYNPSLKSRATISIDTSKSQFSLKLSSVTAADTAVYYCPRGPTMIRGVIDSWGQGTLVTVSS VL: EIVLTQSPATLSLSPGERATLSCRASQSVRSYLAWYQQKPGQAPRLLIYDASNRATGIPARFSGSGSGTDFTLTISSLEPEDFAVYYCQQRSNWPPTFGQGTKVEIK
1.97 | H1.22 L1 XENP34478 (antibody, V domains shown) VH: QLQVQESGPGLVKPSETLSLTCTVSGGSISNSDFSWGWIRQPPGKGLEWIGSFYYGEKTYYNPSLKSRATISIDTSKSQFSLKLSSVTAADTAVYYCPRGPTMIRGVIDSWGQGTLVTVSS VL: EIVLTQSPATLSLSPGERATLSCRASQSVRSYLAWYQQKPGQAPRLLIYDASNRATGIPARFSGSGSGTDFTLTISSLEPEDFAVYYCQQRSNWPPTFGQGTKVEIK
0.767 | H1.23 L1 XENP34479 (antibody, V domains shown) VH: QLQVQESGPGLVKPSETLSLTCTVSGGSISNSGFSWGWIRQPPGKGLEWIGSFYYGEKTYYNPSLKSRATISIDTSKSQFSLKLSSVTAADTAVYYCPRGPTMIRGVIDSWGQGTLVTVSS VL: EIVLTQSPATLSLSPGERATLSCRASQSVRSYLAWYQQKPGQAPRLLIYDASNRATGIPARFSGSGSGTDFTLTISSLEPEDFAVYYCQQRSNWPPTFGQGTKVEIK
0.316 | H1.7 L1 XENP34463 (antibody, V domains shown) VH: QLQVQESGPGLVKPSETLSLTCAVSGGSISNSYFSWGWIRQPPGKGLEWIGSFYYGEKTYYNPSLKSRATISIDTSKSQFSLKLSSVTAADTAVYYCPRGPTMIRGVIDSWGQGTLVTVSS VL: EIVLTQSPATLSLSPGERATLSCRASQSVRSYLAWYQQKPGQAPRLLIYDASNRATGIPARFSGSGSGTDFTLTISSLEPEDFAVYYCQQRSNWPPTFGQGTKVEIK
0.238 | H1.8 L1 XENP34464 (antibody, V domains shown) VH: QLQVQESGPGLVKPSETLSLTCTVSGYSISNSYFSWGWIRQPPGKGLEWIGSFYYGEKTYYNPSLKSRATISIDTSKSQFSLKLSSVTAADTAVYYCPRGPTMIRGVIDSWGQGTLVTVSS VL: EIVLTQSPATLSLSPGERATLSCRASQSVRSYLAWYQQKPGQAPRLLIYDASNRATGIPARFSGSGSGTDFTLTISSLEPEDFAVYYCQQRSNWPPTFGQGTKVEIK
0.0242 | H1.6 L1 XENP34462 (antibody, V domains shown) VH: QLQVQESGPGLVKPSQTLSLTCTVSGGSISNSYFSWGWIRQPPGKGLEWIGSFYYGEKTYYNPSLKSRATISIDTSKSQFSLKLSSVTAADTAVYYCPRGPTMIRGVIDSWGQGTLVTVSS VL: EIVLTQSPATLSLSPGERATLSCRASQSVRSYLAWYQQKPGQAPRLLIYDASNRATGIPARFSGSGSGTDFTLTISSLEPEDFAVYYCQQRSNWPPTFGQGTKVEIK
0.0115 | H1.15 L1 XENP34471 (antibody, V domains shown) VH: QLQVQESGPGLVKPSETLSLTCTVSGGSISTSYFSWGWIRQPPGKGLEWIGSFYYGEKTYYNPSLKSRATISIDTSKSQFSLKLSSVTAADTAVYYCPRGPTMIRGVIDSWGQGTLVTVSS VL: EIVLTQSPATLSLSPGERATLSCRASQSVRSYLAWYQQKPGQAPRLLIYDASNRATGIPARFSGSGSGTDFTLTISSLEPEDFAVYYCQQRSNWPPTFGQGTKVEIK
